Measured values: patent US10457718B2, “Compounds for the treatment of cancer” (Rheinisch-Westfaelische Technische Hochschule Aachen, priority 2015, dated 2019)

Assays:
[1] = test system: MDA-MB231 breast cancer cells; assay: short-term cell number WST assay / XTT proliferation assay of small peptides; assay type: cell-based, human; conditions: 300 ng/ml
Excerpt: FIG. 6 presents diagrams showing the tumor suppressive impact of small peptides derived from ITIH5 on aggressive MDA-MB231 breast cancer cells. Growth inhibition mediated by chemically synthesized ITIH5-derived peptides using a short-term cell number WST assay.
These small protein fragments can be further optimized (stabilization, modification) to obtain suitable candidates for novel anti-tumor drugs. Use of biological drugs in targeted cancer therapy is a strongly growing area in cancer care.

[2] = test system: MDA-MB231 breast cancer cells; assay: short-term cell number assay (CASY cell counter); assay type: cell-based, human; conditions: for inhibition of tumor cell growth: dose dependent, maximal effect
Method: (§1) Various functional readout systems were available to determine the tumor suppressive impact of 1-681_ITIH5 treatment in vitro: A) Cell number assay: Numbers of living cells were quantified after four days of culturing using the CASY cell counter and analyzer (Roche Diagnostics, Mannheim, Germany). B) XTT proliferation assay: the cell proliferation KIT (XTT) was used according to the manufacturer's recommendations (Roche). C) Colony formation assay: 1×10^3 cells were seeded into six-well plates. After 14 days of culturing grown colonies were fixed with 3.5% formaldehyde/80% methanol and stained with 0.1% crystal violet. D) Wound healing assay: a confluent monolayer was scratched with a pipette tip. Afterwards cell migration within the wounded area was analyzed by using a light microscope over three days.
as §1, with “Highly purified peptides were used for functional in vitro validation. Various” for “Various”, “ITIH5 protein subfragments” for “1-681_ITIH5 treatment”, “B)” for “B) XTT proliferation assay: the cell proliferation KIT (XTT) was used according to the manufacturer's recommendations (Roche). C)”, “violet. C) In order to ensure specificity of observed effects of the ITIH5 subfragments a LDH Cytotoxicity Detection Kit (Roche) was performed according to the manufacturer's recommendations.” for “violet.”

[3] = test system: MDA-MB231 breast cancer cells; assay: long-term colony formation assay; assay type: cell-based, human; conditions: p<0.001
Method: as §1

[4] = stability in supernatant of treated cancer cells (western blot); assay type: in vitro ADME; conditions: 1 μg/ml added to supernatant of MDA-MB231 cells; western blotting
Method: FIG. 2 is a diagram showing the performance of the recombinant 1-681_ITIH5 in vitro. A) Persisting stability of 1-681_ITIH5 over 48 h in vitro. 1 μg/ml of 1-681_ITIH5 was added to the supernatant of MDA-MB231 breast cancer cells. To the given time points 1 ml of the supernatant was harvested and non-degraded 1-681_ITIH5 was isolated and analyzed by western blotting (as shown). B) LDH cytotoxicity assay.
Before applying 1-681_ITIH5 in vitro both the stability and the purity were tested by using a western blot analysis.

[5] = test system: MDA-MB231 breast cancer cells; assay: LDH Cytotoxicity Detection assay; assay type: cell-based, human; conditions: after 72 h vs controls
Method: (§2) In order to ensure specificity of observed effects of 1-681_ITIH5, a LDH Cytotoxicity Detection assay (Roche) was performed according to the manufacturer's recommendations. Furthermore MDA-MB231 single cell clones were generated which stably express ITIH5 protein under a strong CMV promoter. These endogenous ITIH5-positive clones are optimal control cells, i.e. those ITIH5-positive cells should not show further sensitivity against 1-681_ITIH5 in growth inhibitory experiments.
Highly purified peptides were used for functional in vitro validation. Various functional readout systems were available to determine the tumor suppressive impact of ITIH5 protein subfragments in vitro: A) Cell number assay: Numbers of living cells were quantified after four days of culturing using the CASY cell counter and analyzer (Roche Diagnostics, Mannheim, Germany). B) Colony formation assay: 1×10^3 cells were seeded into six-well plates. After 14 days of culturing grown colonies were fixed with 3.5% formaldehyde/80% methanol and stained with 0.1% crystal violet. C) In order to ensure specificity of observed effects of the ITIH5 subfragments a LDH Cytotoxicity Detection Kit (Roche) was performed according to the manufacturer's recommendations. […] Afterwards cell migration within the wounded area was analyzed by using a light microscope over three days.

[6] = test system: MDA-MB231 endogenously ITIH5 positive cells; assay: colony formation assay in ITIH5-expressing single cell clones; assay type: cell-based, human; conditions: MDA-MB231 clones stably expressing ITIH5
Method: as §1, §2

[7] = test system: BT20 breast cancer cell line; assay: colony formation assay; assay type: cell-based, human
Method: as §1

[8] = test system: T47D breast cancer cell line; assay: colony formation assay; assay type: cell-based, human
Method: as §1

[9] = test system: SK-MES1 lung cancer cells; assay: XTT proliferation assay; assay type: cell-based, human; conditions: dose-dependent
Method: as §1

[10] = test system: MDA-MB231 breast cancer cells; assay: scratch wound healing assay (cell migration); assay type: cell-based, human; conditions: over 3 days
Method: as §1
Highly purified peptides were used for functional in vitro validation. Various functional readout systems were available to determine the tumor suppressive impact of ITIH5 protein subfragments in vitro: A) Cell number assay: Numbers of living cells were quantified after four days of culturing using the CASY cell counter and analyzer (Roche Diagnostics, Mannheim, Germany). B) Colony formation assay: 1×10^3 cells were seeded into six-well plates. […] Afterwards cell migration within the wounded area was analyzed by using a light microscope over three days.

A549 lung cancer cells [11] = assay: short-term cell number assay (CASY cell counter); assay type: cell-based, human; conditions: dose dependent, maximal effect
Method: (§3) Highly purified peptides were used for functional in vitro validation. Various functional readout systems were available to determine the tumor suppressive impact of ITIH5 protein subfragments in vitro: A) Cell number assay: Numbers of living cells were quantified after four days of culturing using the CASY cell counter and analyzer (Roche Diagnostics, Mannheim, Germany). B) Colony formation assay: 1×10^3 cells were seeded into six-well plates. After 14 days of culturing grown colonies were fixed with 3.5% formaldehyde/80% methanol and stained with 0.1% crystal violet. C) In order to ensure specificity of observed effects of the ITIH5 subfragments a LDH Cytotoxicity Detection Kit (Roche) was performed according to the manufacturer's recommendations. D) Wound healing assay: a confluent monolayer was scratched with a pipette tip. Afterwards cell migration within the wounded area was analyzed by using a light microscope over three days.

A549 lung cancer cells [12] = assay: LDH Cytotoxicity Detection assay; assay type: cell-based, human; conditions: after 72 h vs controls
Method: as §3

**Q.** With “#26: chemically synthesized peptide derived from the ITIH5 VIT-domain (SVKSTIISRYAFTTVSCRML; isolated peptide)” as the molecule, how does the “cancer cell growth, single peptides” value [1] read?
**A.** The value was “significant impairment of cancer cell growth”.

**Q.** For “#32: chemically synthesized peptide derived from the ITIH5 VIT-domain (MLNRASEDQDIEFQMQIPAA; isolated peptide)”, which “cancer cell growth, single peptides” value [1] is on record?
**A.** Its value is “significant impairment of cancer cell growth”.

**Q.** For “#98: chemically synthesized peptide derived from the ITIH5 vWA domain (GDIQVLNGYFVHYFAPKDLP; isolated peptide)”, which “cancer cell growth, single peptides” value [1] is on record?
**A.** The value was “significant impairment of cancer cell growth”.

**Q.** With “#102: chemically synthesized peptide derived from the ITIH5 vWA domain (YFAPKDLPPLPKNVVFVLDS; isolated peptide)” as the molecule, how does the “cancer cell growth, single peptides” value [1] read?
**A.** Its value is “significant impairment of cancer cell growth”.

**Q.** For “#108: chemically synthesized peptide derived from the ITIH5 vWA domain (DSSASMVGTKLRQTKDALFT; isolated peptide)”, which “cancer cell growth, single peptides” value [1] is on record?
**A.** Its value is “significant impairment of cancer cell growth”.

**Q.** For “#111: chemically synthesized peptide derived from the ITIH5 vWA domain (KLRQTKDALFTILHDLRPQD; isolated peptide)”, which “cancer cell growth, single peptides” value [1] is on record?
**A.** Its value is “significant impairment of cancer cell growth”.

B1: 1-681_ITIH5: recombinant isolated polypeptide, amino acids 1-681 of the full-length ITIH5 protein (942 amino acids) (protein)
chain: MLLLLGLCLGLSLCVGSQEEAQSWGHSSEQDGLRVPRQVRLLQRLKTKPLMTEFSVKSTIISRYAFTTVSCRMLNRASEDQDIEFQMQIPAAAFITNFTMLIGDKVYQGEITEREKKSGDRVKEKRNKTTEENGEKGTEIFRASAVIPSKDKAAFFLSYEELLQRRLGKYEHSISVRPQQLSGRLSVDVNILESAGIASLEVLPLHNSRQRGSGRGEDDSGPPPSTVINQNETFANIIFKPTVVQQARIAQNGILGDFIIRYDVNREQSIGDIQVLNGYFVHYFAPKDLPPLPKNVVFVLDSSASMVGTKLRQTKDALFTILHDLRPQDRFSIIGFSNRIKVWKDHLISVTPDSIRDGKVYIHHMSPTGGTDINGALQRAIRLLNKYVAHSGIGDRSVSLIVFLTDGKPTVGETHTLKILNNTREAARGQVCIFTIGIGNDVDFRLLEKLSLENCGLTRRVHEEEDAGSQLIGFYDEIRTPLLSDIRIDYPPSSVVQATKTLFPNYFNGSEIIIAGKLVDRKLDHLHVEVTASNSKKFIILKTDVPVRPQKAGKDVTGSPRPGGDGEGDPNHIERLWSYLTTKELLSSWLQSDDEPEKERLRQRAQALAVSYRFLTPFTSMKLRGPVPRMDGLEEAHGMSAAMGPEPVVQSVRGAGTQPGPLLKKPYQPRIKISKTSVDGD
modifications: polypeptide 1-681_ ITIH5
**Q.** What does the source list for B1?
**A.** Growth inhibition ([2]; 100 ng/ml medium, repeated experiments): up to 20%; Growth inhibition ([2]; 1 μg/ml medium, highly significant): up to 50%; colony growth after 14 days in culture (densitometrical evaluation) [3]: significantly impairs colony growth; stability in the supernatant of treated cancer cells [4]: ≥ 48 h; unspecific cytotoxicity (LDH) [5]: no unspecific cytotoxicity; growth inhibition in ITIH5-positive cells [6]: not able to mediate growth inhibition; colony growth [7]: significantly reduced colony growth; colony growth [8]: significantly reduced colony growth; cell growth inhibition (XTT) [9]: strongly mediates cell growth inhibition; tumor cell migration / cell motility [10]: impairs furthermore tumor cell migration

B2: 1-162_VIT: isolated recombinant polypeptide comprising only the VIT domain of ITIH5, amino acid 1 to 162 (protein)
chain: MLLLLGLCLGLSLCVGSQEEAQSWGHSSEQDGLRVPRQVRLLQRLKTKPLMTEFSVKSTIISRYAFTTVSCRMLNRASEDQDIEFQMQIPAAAFITNFTMLIGDKVYQGEITEREKKSGDRVKEKRNKTTEENGEKGTEIFRASAVIPSKDKAAFFLSYEE
modifications: VIT- domain of the inter-alpha-trypsin inhibitor heavy chain
**Q.** What does the source list for B2?
**A.** inhibition of tumor cell growth [2]: up to 40%; unspecific cytotoxicity (LDH) [5]: no unspecific cytotoxicity; tumor cell migration / cell motility [10]: clearly suppresses cell motility; inhibition of tumor cell growth (A549 lung cancer cells [11]): up to 40%; unspecific cytotoxicity (LDH) (A549 lung cancer cells [12]): no unspecific cytotoxicity

B3: 213_vWA: isolated recombinant polypeptide comprising only the vWA domain of ITIH5, 213 amino acids (protein)
chain: GYFVHYFAPKDLPPLPKNVVFVLDSSASMVGTKLRQTKDALFTILHDLRPQDRFSIIGFSNRIKVWKDHLISVTPDSIRDGKVYIHHMSPTGGTDINGALQRAIRLLNKYVAHSGIGDRSVSLIVFLTDGKPTVGETHTLKILNNTREAARGQVCIFTIGIGNDVDFRLLEKLSLENCGLTRRVHEEEDAGSQLIGFYDEIRTPLLSDIRIDY
modifications: “vWA” domain of the inter-alpha-trypsin inhibitor heavy chain
**Q.** With B3 as the molecule, how does the “inhibition of tumor cell growth” value [2] read?
**A.** Its value is “up to 30%”.
